Data taken from IntAct's records for PubMed 20553494.

B1: Homeobox protein Meis2 (Homo sapiens), O14770-4 (parent)
chain: MAQRYDELPHYGGMDGVGVPASMYGDPHAPRPIPPVHHLNHGPPLHATQHYGAHAPHPNVMPASMGSAVNDALKRDKDAIYGHPLFPLLALVFEKCELATCTPREPGVAGGDVCSSDSFNEDIAVFAKQVRAEKPLFSSNPELDNLMIQAIQVLRFHLLELEKVHELCDNFCHRYISCLKGKMPIDLVIDERDGSSKSDHEELSGSSTNLADHNPSSWRDHDDATSTHSAGTPGPSSGGHASQSGDNSSEQGDGLDNSVASPGTGDDDDPDKDKKRQKKRGIFPKVATNIMRAWLFQHLTHPYPSEEQKKQLAQDTGLTILQVNNWFINARRRIVQPMIDQSNRAVSQGAAYSPEGQPMGSFVLDGQQHMGIRPAGLQSMPGDYVSQGGPMGMSMAQPSYTPPQMTPHPTQLRHGPPMHSYLPSHPHHPAMMMHGGPPTHPGMTMSAQSPTMLNSVDPNVGGQVMDIHAQ
partner: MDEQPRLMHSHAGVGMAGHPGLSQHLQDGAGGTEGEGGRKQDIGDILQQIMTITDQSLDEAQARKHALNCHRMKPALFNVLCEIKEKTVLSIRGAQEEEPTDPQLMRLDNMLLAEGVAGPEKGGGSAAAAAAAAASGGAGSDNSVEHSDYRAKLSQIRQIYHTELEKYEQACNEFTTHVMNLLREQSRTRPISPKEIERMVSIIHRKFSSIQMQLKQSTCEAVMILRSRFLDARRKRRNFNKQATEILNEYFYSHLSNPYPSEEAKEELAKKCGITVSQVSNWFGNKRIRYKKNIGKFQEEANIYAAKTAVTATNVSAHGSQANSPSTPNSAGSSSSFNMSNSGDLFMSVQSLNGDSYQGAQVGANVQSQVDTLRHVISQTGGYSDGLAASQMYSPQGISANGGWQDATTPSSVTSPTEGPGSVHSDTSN

Variants of: B1
Conditions: with pbx1_human PBX1, P40424

| effect of a mutation on the interaction | Variant |
| --- | --- |
| decreasing interaction | K163A |
| decreasing interaction | E162A |
| decreasing interaction | E160A |

Variants of: B1
Conditions: with pbx1_human PBX1, P40424
Remark: another data set of the same source

| effect of a mutation on the interaction | Variant |
| --- | --- |
| decreasing interaction | I151A |
| decreasing interaction | L154A |

Variants of: B1
Conditions: with pbx1_human PBX1, P40424
Remark: another data set of the same source

| effect of a mutation on the interaction | Variant |
| --- | --- |
| decreasing interaction | L85A |
| decreasing interaction | L88A |

Variants of: B1
Conditions: with pbx1_human PBX1, P40424
Remark: another data set of the same source

| effect of a mutation on the interaction | Variant |
| --- | --- |
| decreasing interaction | E97T |
| decreasing interaction | E94N |
| decreasing interaction | K95N |
| decreasing interaction | C96G |

Variants of: B1
Conditions: with pbx1_human PBX1, P40424
Remark: another data set of the same source

| effect of a mutation on the interaction | Variant |
| --- | --- |
| decreasing interaction | L161A |
| decreasing interaction | L159A |
| decreasing interaction | L158A |
